Laboratory results: article PMC12259267 (2025)

What was measured:
[1] = molecular target: recombinant GFP–C-Myc (UniProt P01106 1-454); test: MST
[2] = molecular target: T1, recombinant GFP–N-Myc (UniProt P04198 1-464); test: MST
T1 chain: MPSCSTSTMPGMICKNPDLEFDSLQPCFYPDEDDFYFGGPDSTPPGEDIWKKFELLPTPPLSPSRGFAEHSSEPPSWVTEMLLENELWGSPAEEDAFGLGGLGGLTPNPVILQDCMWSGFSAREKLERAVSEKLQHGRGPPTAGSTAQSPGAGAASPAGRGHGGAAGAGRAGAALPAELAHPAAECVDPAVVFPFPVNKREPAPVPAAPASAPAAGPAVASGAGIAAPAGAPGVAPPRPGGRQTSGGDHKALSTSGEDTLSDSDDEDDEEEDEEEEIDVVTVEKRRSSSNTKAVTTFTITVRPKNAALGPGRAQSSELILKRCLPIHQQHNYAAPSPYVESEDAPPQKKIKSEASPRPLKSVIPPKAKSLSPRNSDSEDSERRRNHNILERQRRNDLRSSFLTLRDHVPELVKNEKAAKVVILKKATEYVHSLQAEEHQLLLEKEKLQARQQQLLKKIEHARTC

Sequence of recombinant GFP–C-Myc (P01106 whole entry): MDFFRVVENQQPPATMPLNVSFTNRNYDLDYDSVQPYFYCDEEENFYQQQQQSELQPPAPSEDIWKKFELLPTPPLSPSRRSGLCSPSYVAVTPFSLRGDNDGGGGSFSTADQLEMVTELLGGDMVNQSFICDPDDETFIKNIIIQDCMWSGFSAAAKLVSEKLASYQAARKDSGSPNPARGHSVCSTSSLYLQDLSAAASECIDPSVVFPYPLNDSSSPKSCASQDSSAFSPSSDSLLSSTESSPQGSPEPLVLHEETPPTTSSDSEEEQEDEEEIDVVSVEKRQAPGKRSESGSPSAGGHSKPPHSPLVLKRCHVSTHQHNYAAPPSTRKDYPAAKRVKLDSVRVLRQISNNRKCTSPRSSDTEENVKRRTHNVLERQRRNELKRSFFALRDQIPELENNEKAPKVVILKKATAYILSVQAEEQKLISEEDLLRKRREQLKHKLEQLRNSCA

B1: KLHL37-His recombinant protein (natural protein)
chain: MSVSVHENRKSRASSGSINIYLFHKSSYADSVLTHLNLLRQQRLFTDVLLHAGNRTFPCHRAVLAACSRYFEAMFSGGLKESQDSEVNFDNSIHPEVLELLLDYAYSSRVIINEENAESLLEAGDMLEFQDIRDACAEFLEKNLHPTNCLGMLLLSDAHQCTKLYELSWRMCLSNFQTIRKNEDFLQLPQDMVVQLLSSEELETEDERLVYESAINWISYDLKKRYCYLPELLQTVRLALLPAIYLMENVAMEELITKQRKSKEIVEEAIRCKLKILQNDGVVTSLCARPRKTGHALFLLGGQTFMCDKLYLVDQKAKEIIPKADIPSPRKEFSACAIGCKVYITGGRGSENGVSKDVWVYDTLHEEWSKAAPMLVARFGHGSAELKHCLYVVGGHTAATGCLPASPSVSLKQVEHYDPTINKWTMVAPLREGVSNAAVVSAKLKLFAFGGTSVSHDKLPKVQCYDQCENRWTVPATCPQPWRYTAAAVLGNQIFIMGGDTEFSACSAYKFNSETYQWTKVGDVTAKRMSCHAVASGNKLYVVGGYFGIQRCKTLDCYDPTLDVWNSITTVPYSLIPTAFVSTWKHLPS
EC50 [1]: 2.54 nM | EC50 [2]: 0.0983 nM
